Four substances from US5633227 can be followed below.

Experiment [1] has as its target human mast cell tryptase purified from human lung (human) (UniProt Q15661). Briefly: GPK-AMC enzyme inhibition assay, Dixon plot, human lung tryptase.
Experiment [2] shares this target. Description: VIP assay (formation of Dns-VIP-(1-14)), Dixon plot, human lung tryptase.
The target of experiment [3] is dansylated vasoactive intestinal peptide (Dns-VIP, 28 amino acids) (Homo sapiens (Human)) (UniProt P01282).
Experiment [4] deals with human mast cell tryptase purified from human lung (human) (UniProt Q15661). Briefly: VIP assay (loss of full-length Dns-VIP), Dixon plot, human lung tryptase.

Chain of C-terminal domain of SLPI (amino acids 50-107) (P03973 75-132 limits assumed): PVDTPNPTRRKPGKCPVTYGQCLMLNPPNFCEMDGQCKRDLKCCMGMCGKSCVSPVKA
Chain of N-terminal domain of SLPI (amino acids 1-49) (P03973 26-74 limits assumed): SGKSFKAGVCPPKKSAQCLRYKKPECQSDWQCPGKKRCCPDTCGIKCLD
Chain of recombinant secretory leukocyte protease inhibitor (SLPI) (P03973 26-132): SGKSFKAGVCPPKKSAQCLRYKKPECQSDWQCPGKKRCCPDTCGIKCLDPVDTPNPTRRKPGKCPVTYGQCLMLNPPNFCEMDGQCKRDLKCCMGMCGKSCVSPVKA

In general, Ki refers to the equilibrium dissociation constant of an inhibitor or competing ligand from its target. In the case of “C-terminal domain of SLPI (amino acids 50-107) (from UniProt P03973)”, the Ki in experiment [1] was determined as 4.8 nM; in experiment [2] it was 1.6 nM.
As for “N-terminal domain of SLPI (amino acids 1-49) (from UniProt P03973)”, the Ki in experiment [1] was 290 nM; in experiment [2] it was 130 nM.
In the case of “human mast cell tryptase purified from human lung (from UniProt Q15661) (enzyme)”, the kcat/Km for the disappearance of full-length Dns-VIP (1-28), no addition in experiment [3] is 1.8e+07 M⁻¹ s⁻¹.
Turning to “recombinant secretory leukocyte protease inhibitor (SLPI) (from UniProt P03973)”, in experiment [4], the Ki amounted to 8 nM.
